For test [1], the target named is alpha v integrins of OV10 cells (human (endogenous in OV10)). The experiment in a line: binding of protein-coated beads to adherent cells.
Test [2] shares this target. Nature of the test: binding of protein-coated beads to adherent cells. This is another data set of the same source.

Read-outs that look alike come from different tables or passages of the source.

For the substance “Vitronectin (from UniProt P04004) (ligand)”, the attachment index (beads bound per 100 cells) (beads bound per 100 cells) came to 373 in test [1] and 181 in test [2].

The values are drawn from article PMC2120984.
